From publication PMC7005279, “Cryo-EM study of an archaeal 30S initiation complex gives insights into evolution of translation initiation” (Communications Biology, 2020)
Values belong to the binder of their own block, whether it stands above or below them.

Legend:
[1] = biological target: T1, ribosomal protein uS9 of the Pyrococcus abyssi 30S subunit (P. abyssi, UniProt Q9V195 1-135); assay: cryo-EM structure; IC2 complex (Pa-30S:mRNA:aIF1A:aIF2:GDPNP:Met-tRNAi) purified on TALON by N-terminally tagged aIF2β and aIF2α; overall 3.2 Å, classes IC2A 4.2 Å and IC2B 3.3 Å; aIF1A and aIF2 placed by rigid body fitting; details: both partners purified
T1 construct: 30S ribosomal protein uS9 (S9), Pyrococcus abyssi; its C-terminal residue is printed as R135; Subunit of the native 30S; source: endogenous, in 30S subunits purified from P. abyssi
T1 sequence (Q9V195 whole entry): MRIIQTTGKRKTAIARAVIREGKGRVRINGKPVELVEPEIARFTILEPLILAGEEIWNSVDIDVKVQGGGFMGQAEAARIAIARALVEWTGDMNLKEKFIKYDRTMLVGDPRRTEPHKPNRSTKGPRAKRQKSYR

[2] = biological target: ribosomal protein uS11 of the Pyrococcus abyssi 30S subunit (P. abyssi, UniProt P62010 1-137); assay: as above; details: both partners purified

binding result [1]: binds
B1: ribosomal protein uS19 of the Pyrococcus abyssi 30S subunit (natural protein)
chain: not shown
notes: 30S ribosomal protein uS19 (S19), Pyrococcus abyssi; Subunit of the native 30S; source: endogenous, in 30S subunits purified from P. abyssi

binding result [2]: binds
B2: ribosomal protein uS7 of the Pyrococcus abyssi 30S subunit (natural protein)
chain: not shown
notes: Subunit of the native 30S; source: endogenous, in 30S subunits purified from P. abyssi
